The source of these data is the DeepSol protein solubility set.

This series can be described thus: soluble on expression in E. coli; label from the status in PepcDB or PDB records.
For “MGSDKIHHHHHHMKKYVLSLALLGSLLGASELKYQEFDGFKSPESIFVDKNYVYVSNVGEKLEPLAKDNDGFISKLDKNGKVLEYKFLTHLNAPKGMMEIGKTLYVVDIDVLRGFDLKTKKEIFNLPIKGAIFLNDIEKLDDNTLLVSDTGTGLILKVDLKTKQYDELLKLDLAKFGGPNGLYLDRKKHKLFIAGYHPDGVSGGVVMAYDLNTKELSIIKNEKESYDGIVPYKDGLLVSSWGNNLNGYIYNLDNVKSVKLELPLMKGPADIFIEGNILWIPKMVEGKIFKVELNK”, the “soluble on expression in E. coli” value is “not soluble”.

Consider “MPFIDLQSKLGINVDKWLLAQSGEQPRKRAAFCHAFEKEWIECSHAIGKTRASKECNIEWEDFYECMHRFKTMKRLKEISTQKEKMIKEGTYTPPPHHTGKGEPLS”, for which the “soluble on expression in E. coli” value is recorded as “not soluble”.

For the sequence “MGSDKIHHHHHHMELRVGGAKPSDNSPAASKGFSDPLDSHGVPGRSKQYLIHSAFTGTIGGVAMAYVDWAIKGPKIASCSCDYGCPCEFNGKPTEGLCEGLECMLIEEGWFGDLRLDGLKVAAVYRWPGPVHEGGGVVRGFFDANADQAQIDALFTILGGKEQEPTTVFNIYGSTIAQELEPIFAPIEFHSDIEKRTGGFRIDGHLELELEPIRNPVTGAPHRARIVLPEGFEFRQAEIASGTFNANGEIAMGRQKRYGALWRAAYGPYGIIEE”, the “soluble on expression in E. coli” value is given as “not soluble”.

Take “MPALSGGDGVIRFQQVSKAYRGGRQALQKVDFHLRRGEMAFLGGHSGAGKSTLLKLICAIERPTDGKISFNGHDITRIPNKDIPFLRRNIGIVFQDHRLLMDRSIYDNVALPMRIESISENEIKRRVSAALDKTGLLDKARCLPSQLSGGEQQRVGIARAVVNRPTLLLADEPTGNLDPELSSRVLRLFEEFNRAGVTILLATHDIHLVNSRPQYRHLELNQGFLSEVADYGR”: the “soluble on expression in E. coli” value was “not soluble”.

For “MGSDKIHHHHHHLEELDQMRAVFGTRPWREPTDTPAVISVSNFKGGVGKSTVALHLAQHFAIHGYRVLFIDCDSQASSTMMFGYRPDVDLTEDDTLYGHFHNPELLGVRSIIRKTHFFGLDLIPANLKLYNLEYEIAGYLAQNQNFDIIDLIAEAIDTVVDDYDVVVMDPPPALGMVSMAVLQAANAMVIPVPPSVIDFASTVSFIDMARTTMKQLEQIAGRVKPAYNFIRLVGSRVDESKSMHREILSMMRQVFGGSMATSVLKTSAEIDNASSRMKTVFELDRPVTSHEVHNRCMKHLSDVCREIETDVLRTWASRAGEAV”, the “soluble on expression in E. coli” value is on record as “not soluble”.

As to “MRGLLVATWIFVSVAASATPTTTTKSPPPTTTTLSPQILKAKLPPVVKNATWECGTDEFTKSISEGEIQAKCPKLRDHINSCCLQHDGCYEAQSGQKFCDDTFCSCLERRSRSSKSCHDESAPLFCDLVRTFGDGAYEASGPNASTTEESPAEKDDYDYESHVAGLNATPSSST”, the “soluble on expression in E. coli” value was “not soluble”.

For “MSLTFSILAHDPETGAIGGAAATGSLCVGGWVLRGDLNAGMSASQGAAPSTFWGEEVLQHLRDGSHPEDAVNHVTSQDSGRAYRQLAAMDLLGNAAAFTGSENQDIKGSVTFASGIASGNMLGDNSVLGAMTEAFVASDLTFERRLLAALIAAEGAGSDFRGLLSAAMLVLHPDRPPVTLRIDYHPDNPIGALEQLYQKATTGDYADWARQVPVLSDKERILDEGHHHHHH”, the “soluble on expression in E. coli” value was “soluble”.

On to “AESESFVLDFSQPSADYLDFRNRLQADHVCLENCVLKDKAIAGTVKVQNLAFEKTVKIRMTFDTWKSYTDFPCQYVKDTYAGSDRDTFSFDISLPEKIQSYERMEFAVYYECNGQTYWDSNRGKNYRIIRAELKSTQGMTKPHSGPDLG”, for which the “soluble on expression in E. coli” value is “soluble”.

Take “MGSDKIHHHHHHMRIAIIEDEPLAAEKLAGYIQRQWPEAKIIATLSSVDAVIEFFNQPQNLDLLFSDIELSDGQVFSALEQIDVPCPVIFTTSYNDYWMNAFQNQGIEYLLKPFSFKRFSQAVANYQALFEQRSKIETTSFKQRFIIKQQGASEMLNVAEIHCFRAANGTILAGDKQGQYHILSDNNLSQLEAQLDPKVFFRINRADIININSLIKFETYTKETLALYIKGYSEALVTSKTRTANFRKWLEA”: the “soluble on expression in E. coli” value is reported as “not soluble”.

“MGSDKIHHHHHHMQPTYLPWMGYFDLIDIADKFVFLDNVQLERSGWQVRNRIRSSQGELMLRVAIATPKRFDETLIHQTQFVTGHPWRKKHLKSIQMNYQKAPYFAQVYPLLESLYQKDETSLSQFNISVINALCTFMGINTPRMLASELVDIEGIKDARLTSICKHLDADQYLSPLGAMAYIEQESSGGDLGENGIDVFYHQFVHPQYTQVYDGFISHLSIIDALFNLGPQNTVTLIRQFRQAPINYTSLPR”: the “soluble on expression in E. coli” value is reported as “not soluble”.
